The results in this text go back to patent publication US20090041784A1 (Amgen, published 2009).

The target of assay [1] is T1, chimera-10 (amino acids 80-142 from human GCGR, remainder from human GLP-1 receptor) (human, UniProt P43220 24-83; P43220 146-463).
T1 construct: Expressed on cells; not shown: in-frame C-terminal fluorescent protein, not identified
Put plainly: FMAT on cells expressing the chimeric receptor.

Assay [2] has as its target T2, chimera-15 (amino acids 80-119 from human GCGR, remainder from human GLP-1 receptor) (human, UniProt P43220 24-83; P43220 125-463).
T2 construct: Expressed on cells; not shown: in-frame C-terminal fluorescent protein, not identified
Briefly: FMAT on cells expressing the chimeric receptor.

Assay [3] addresses T3, chimera-8 (amino acids 80-477 from human GCGR, remainder from human GLP-1 receptor) (human, UniProt P43220 24-83).
T3 construct: Expressed on cells; not shown: in-frame C-terminal fluorescent protein, not identified
Put plainly: FMAT on cells expressing the chimeric receptor.

The target of assay [4] is T4, human glucagon receptor (human, UniProt P47871 26-477). Briefly: cell-based or functional assay.
Assay [5] deals with T4, human glucagon receptor. Put plainly: competition with 1 nM Alexa-labeled A-3 for human GCGR on CHO cells, FMAT.
Assay [6] deals with mouse glucagon receptor (mouse (Mus musculus), UniProt Q61606 27-485). Put plainly: cell-based or functional assay.
Assay [7] concerns the target rat glucagon receptor (rat (Rattus norvegicus), UniProt P30082 27-485). Put plainly: cell-based or functional assay.
The target in assay [8] is T5, cynomolgus glucagon receptor (cynomolgus (Macaca fascicularis), UniProt P47871 26-477 (human entry)).
T5 chain: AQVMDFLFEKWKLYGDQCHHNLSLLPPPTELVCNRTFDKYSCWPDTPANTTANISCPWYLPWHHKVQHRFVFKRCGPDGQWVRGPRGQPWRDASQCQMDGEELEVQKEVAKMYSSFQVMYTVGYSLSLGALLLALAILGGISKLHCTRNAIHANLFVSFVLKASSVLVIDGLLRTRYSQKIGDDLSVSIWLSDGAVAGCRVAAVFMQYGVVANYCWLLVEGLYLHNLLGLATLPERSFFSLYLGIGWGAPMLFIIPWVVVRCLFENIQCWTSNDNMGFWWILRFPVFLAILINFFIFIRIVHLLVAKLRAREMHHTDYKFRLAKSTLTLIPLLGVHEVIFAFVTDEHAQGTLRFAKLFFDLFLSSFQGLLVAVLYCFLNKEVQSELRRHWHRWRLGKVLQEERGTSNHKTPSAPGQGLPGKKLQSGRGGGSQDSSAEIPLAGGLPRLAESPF
Put plainly: cell-based or functional assay.

Assay [9] concerns the target T4, human glucagon receptor. Briefly: cell-based or functional assay. The source holds these as a separate data set.

Numbering of substitutions follows the chain as printed. Where two headings read alike, the source gives them in different places.

B1: antibody A-21 (antibody, V domains shown)
VH: EVRLVESGGDLVQPGGSLRLSCAASGFTFSSYAMNWVRQAPGKGLEWISYIGSSSSAIYYGDSVKGRFTISRDNAKNSLYLQMNSLRDEDTAVYYCARYRSGWSPLFDFWGQGSLVTVSS
VL: DIQMTQSPSSVSASVGDRVTITCRASQGISSWLAWYQQKPGKAPKLLIYAASSLQSGVPSRFSGSGSGTDFTLTISSLQPEDFATYYCQQANSFPLTFGGGTKVEIK
notes: Human antibody from XenoMouse hybridoma; also called L21H21
With B1, the binding result in [1], in assay [2] and in [3] was “no binding” in each case. Besides, in assay [4], the “IC50 of inhibition of glucagon-induced cAMP production (HTRF, CHO K1 cells expressing the receptor)” value was found to be 0.0472 µM.

B2: antibody A-23 (antibody, V domains shown)
VH: B1 VH with D10G, A23T, T28P, S30N, S31R, I48V, G61A, R100S, F109Y, S114T
VL: B1 VL with A50T, S53T, A91S
notes: Human antibody from XenoMouse hybridoma (IgG2 or IgG4 strains), purified from conditioned medium; also called L23H23
Take B2: in assay [5], the binding result is “binds”.

B3: antibody A-18 (antibody, V domains shown)
VH: QVQLVESGGGVVQPGRSLRLSCAASGFTFSRYGMHWVRQAPGKGLEWVAVIWYDGSHKYYEDSVKGRFTISRDNSKNTLYLQMNSLRADDTGVYYCARVGYGSGWYEYYYHYGMDVWGQGTTVTVSS
VL: NIVMTQTPLSLSVTPGQPASISCKSSQSLLHSDGKNYLFWYLQKPGQSPQLLIYEVSYRFSGVPDRFSGSGSGTDFSLKISRVEAEDVGVYYCMQNIQPPLTFGQGTRLEIK
notes: Human antibody from XenoMouse hybridoma (IgG2 or IgG4 strains), purified from conditioned medium; also called L18H18
With B3, the binding result in assay [1], in [2] and in assay [3] was “no binding” each time. Also, in assay [4], the “IC50 of inhibition of glucagon-induced cAMP production (HTRF, CHO K1 cells expressing the receptor)” value stood at 0.204 µM.

B4: antibody A-17 (antibody, V domains shown)
VH: QVQLVQSGAEVKKPGASVKVSCKASGYTFTSYGISWARQAPGQGLEWMGWIGVYNGHTKYAQKFQGRVTMTTDTSTSTAYMELRSLRSDDTAIFYCARRVAVAGYFDYWGQGTLVTVSS
VL: QSVLTQPPSVSGAPGQRVTISCTGSSSNIGAGYAVHWYQQLPGTAPKLLIYDNNNRPSGVPDRFSGSKSGTSASLAITGLQAEDEADYYCQSYDSSLSAIFGGGTKLTVL
notes: Human antibody from XenoMouse hybridoma (IgG2 or IgG4 strains), purified from conditioned medium; also called L17H17
B4: the binding result in assay [5] is listed as “binds”.

B5: antibody A-22 (antibody, V domains shown)
VH: QVQLVESGGGVVQPGRSLRLSCAASGITFSSYGMHWVRQAPGKGLEWVASIWYDGSNKYYVDSVKGRFTIFRDNSKKTLYLQMNRLRAEDTAVYYCARLGGGFDYWGQGTLVTVSS
VL: DIVLTQTPLSLPVTPGEPASISCRSSQSLLDRDDGDTYLDWYLQKPGQSPQLLIYTLSYRASGVPDRFSGSGSGTDFSLKISRVEAEDVGVYYCMQRIEFPFTFGPGTKVDIK
Consider B5, for which the “IC50 of inhibition of glucagon-induced cAMP production (HTRF, CHO K1 cells expressing the receptor)” value in assay [4] is 0.0072 µM.

B6: antibody A-9 (antibody, V domains shown)
VH: QVQLVESGGGVVQPGRSLRLSCAASGFTFSSYGMHWVRQAPGKGLEWVAVMWYDGSNKDYVDSVKGRFTISRDNSKNTLYLQMNRLRAEDTAVYYCAREKDHYDILTGYNYYYGLDVWGQGTTVTVSS
VL: DIQMTQSPSSLSASVGDRVTITCRASQGIRNDLGWYQQKPGKAPKRLIYAASSLESGVPSRFSGSGSGTEFTLTISSVQPEDFVTYYCLQHNSNPLTFGGGTKVEIK
As for B6, the “IC50 of inhibition of glucagon-induced cAMP production (HTRF, CHO K1 cells expressing the receptor)” value in assay [6] turned out to be 0.0041 µM; in assay [7], 0.0099 µM; in assay [8], 0.0266 µM; in assay [9] it was 0.0074 µM.

B7: antibody A-20 (antibody, V domains shown)
VH: EVQLVESGGDLVQPGGSLRLSCAASGFTFSGYTLNWVRQAPGKGLEWVSNINSRSSLIYYTDSVKGRFTISRDNAKNSLYLQMNSLRDEDTAVYFCARDQYNWNYYYGMDVWGQGTTVTVSS
VL: B6 VL with E55Q, S77N, V78L, V84A, N94Y, L96R, T97S, G100Q, V104L
notes: Human antibody from XenoMouse hybridoma; also called L20H20
With B7, the binding result in assay [5] is “binds”.

B8: antibody A-15 (antibody, V domains shown)
VH: QVQLVESGGGVVQPGKSLRLSCAVSGFIFSSYGMHWVRQAPGKGLEWVALISFDGSNKYYADSVKGRFTISRDNSKNTLYLQMNSLRAEDTAVYYCARDGYYDILTGYEDDAFDIWGQGTMVTVSS
VL: not shown
For B8, in assay [4], the “IC50 of inhibition of glucagon-induced cAMP production (HTRF, CHO K1 cells expressing the receptor)” value was 0.0113 µM.

B9: antibody A-16 (antibody, V domains shown)
VH: QVQLVQSGAEVKKPGASVKVSCKASGYTFTGYYLHWVRQAPGQGLEWMGWIIPDSGGTKYAQKFQGRVTMTRDTSISTAYLELSRLRSDDTAVYYCAREGFHYDILTGSYFYYYGMDVWGQGTTVTVSS
VL: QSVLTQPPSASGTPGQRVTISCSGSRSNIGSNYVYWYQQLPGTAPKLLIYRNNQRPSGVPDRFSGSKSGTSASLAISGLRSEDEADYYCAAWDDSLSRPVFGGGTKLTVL
notes: Human antibody from XenoMouse hybridoma (IgG2 or IgG4 strains), purified from conditioned medium; also called L16H16
In the case of B9, the binding result in assay [5] is recorded as “binds”.

B10: antibody A-13 (antibody, V domains shown)
VH: QVQLVESGGGVVQPGRSLRLSCAASGSTFRSYDMHWVRQAPGKGLEWVAVISYDGSNKYYGDSVKGRLTISRDNSKNTLYLQMNSLRAEDTAVYYCARDQYDILTGYSSDAFDIWGQGTMVTVSS
VL: not shown
On to B10, for which, in assay [4], the “IC50 of inhibition of glucagon-induced cAMP production (HTRF, CHO K1 cells expressing the receptor)” value was found to be 0.0726 µM.

B11: antibody A-10 (antibody, V domains shown)
VH: QVQLQQSGPGLVRPSQTLSLTCAISGDSVSSNYAAWNWIRQSPSRGLEWLGRTYYRSKWYNDYAVSVRSRTTINPDTSKNQFSLQLNSVTPEDTAVYYCTREDGSGWYGAFDIWGQGTMVTVSS
VL: DIQMTQSPSSLSASVGDRVTITCQASQDISKYLNWYQQKPGKAPKLLIYDASNLETGVPSRFSGSGSGTDFTFTISSLQPEDIATYYCQQYGNLPITFGQGTRLESK
notes: Human antibody from XenoMouse hybridoma (IgG2 or IgG4 strains), purified from conditioned medium; also called L10H10
Regarding B11, the binding result in [1], in assay [2] and in assay [3] was “no binding” throughout.

B12: antibody A-14 (antibody, V domains shown)
VH: QVQLVESGGGVVQPGRSLRLSCAASGFTFSNYGMHWVRQAPGKGLEWVAVIWYDGSNKYYADSVKGRFTISRDNSKNTLYLQMNSLRAEDTAVYYCARAYYDILTDYPQYDYYYGMDVWGQGTTVTVSS
VL: NFMLTQPHSVSESPGKTVTISCTRSSGSIVSNFVQWYQQRPGSSPTTVIYEDNQRPSGVPDRFSGSIDSSSNSASLTISGLKTEDEADYYCQSYDTSNQVFGGGTKLTVL
For the molecule B12, the “IC50 of inhibition of glucagon-induced cAMP production (HTRF, CHO K1 cells expressing the receptor)” value in assay [4] worked out at 0.458 µM.
